Molecular target: double Tudor domains of JMJD2A
Assay: ITC; reader domains (BPTF, RAG2, ZCWPW1, SGF29, JMJD2A) titrated with H3 peptides; 25°C; One Set of Binding Sites model

Substance	Kd [nM]
H3_(1–20) K4me3 peptide (from UniProt P68431 2-21)	600
H3_(1–20) “K4me3-K9me3” peptide (from UniProt P68431 2-21)	900
